Measured values published in patent US20260217833A1 (APTEVO RESEARCH AND DEVELOPMENT, published 2026).
Changes are numbered by the printed parent chain.

B1: CD4001078 (bispecific antibody)
PDL_5F9 x Fc-Knob: EVQLVESGGGLVKPGGSLRLSCAASGFTFSDYGMAWVRQAPGKGLEWVAFITSLAYIIYYADSVKGRFTISRDNAKNSLYLQMNSLRAEDTAVYYCARNYGSSPYYFDYWGQGTLVTVSSGGGGSGGGGSGGGGSGGGGSDIQMTQSPSSLSASVGDRVTITCRASQDINKFLSWYQQKPGKAPKLLIHYTSSLQPGVPSRFSGSGSGTDFTLTISSLQPEDFATYYCLQYDNLYTFGQGTKLEIKEPKSSDKTHTCPPCPAPPAAAPSVFLFPPKPKDTLMISRTPEVTCVVVDVSHEDPEVKFNWYVDGVEVHNAKTKPREEQYNSTYRVVSVLTVLHQDWLNGKEYKCAVSNKALPAPIEKTISKAKGQPREPQVYTLPPSRDELTKNQVSLWCLVKGFYPSDIAVEWESNGQPENNYKTTPPVLDSDGSFFLYSKLTVDKSRWQQGNVFSCSVMHEALHNHYTQKSLSLSPG
PDL_5F9 x Fc-Hole x CD40_1D5: EVQLVESGGGLVKPGGSLRLSCAASGFTFSDYGMAWVRQAPGKGLEWVAFITSLAYIIYYADSVKGRFTISRDNAKNSLYLQMNSLRAEDTAVYYCARNYGSSPYYFDYWGQGTLVTVSSGGGGSGGGGSGGGGSGGGGSDIQMTQSPSSLSASVGDRVTITCRASQDINKFLSWYQQKPGKAPKLLIHYTSSLQPGVPSRFSGSGSGTDFTLTISSLQPEDFATYYCLQYDNLYTFGQGTKLEIKEPKSSDKTHTCPPCPAPPAAAPSVFLFPPKPKDTLMISRTPEVTCVVVDVSHEDPEVKFNWYVDGVEVHNAKTKPREEQYNSTYRVVSVLTVLHQDWLNGKEYKCAVSNKALPAPIEKTISKAKGQPREPQVYTLPPSRDELTKNQVSLSCAVKGFYPSDIAVEWESNGQPENNYKTTPPVLDSDGSFFLVSKLTVDKSRWQQGNVFSCSVMHEALHNRFTQKSLSLSPGGGGSPSDIVMSQSPSSLAVSVGEKVTMSCKSSQSLLFSVNQKNYLAWYQQKPGQSPKLLIYWASTRESGVPDRFTGSGSGTDFTLTIGSVKAEDLAVYYCQHYYSYPWTFGGGTKLEIKGGGGSGGGGSGGGGSGGGGSQVQLQQSGAELMNPGASVRISCKATGYTFSTSWIEWIKQRPGHGLEWIGEILPGSGSTNYNEKFKGKATFTADTSSNTAYMQLSSLTFEDSAVYYCARGDDGSYVRWYFDVWGAGTTVTVSS
B2: CD4001081 (bispecific antibody)
Fc-knob x CD40_1D5: EPKSSDKTHTCPPCPAPPAAAPSVFLFPPKPKDTLMISRTPEVTCVVVDVSHEDPEVKFNWYVDGVEVHNAKTKPREEQYNSTYRVVSVLTVLHQDWLNGKEYKCAVSNKALPAPIEKTISKAKGQPREPQVYTLPPSRDELTKNQVSLWCLVKGFYPSDIAVEWESNGQPENNYKTTPPVLDSDGSFFLYSKLTVDKSRWQQGNVFSCSVMHEALHNHYTQKSLSLSPGGGGSPSDIVMSQSPSSLAVSVGEKVTMSCKSSQSLLFSVNQKNYLAWYQQKPGQSPKLLIYWASTRESGVPDRFTGSGSGTDFTLTIGSVKAEDLAVYYCQHYYSYPWTFGGGTKLEIKGGGGSGGGGSGGGGSGGGGSQVQLQQSGAELMNPGASVRISCKATGYTFSTSWIEWIKQRPGHGLEWIGEILPGSGSTNYNEKFKGKATFTADTSSNTAYMQLSSLTFEDSAVYYCARGDDGSYVRWYFDVWGAGTTVTVSS
PDL_5F9 x Fc-Hole x CD40_1D5: B1 PDL_5F9 x Fc-Hole x CD40_1D5
B3: CD4001091 (Fc fusion)
chain: DVQMTQSPILLSASVGDRVTITCRSSQSLVHYNGYTYVHWYQQRTNGSPRLLIYKVSNRFSGVPDRFSGSGSGTDFTLTISSLQPEDIADYFCQQTTHVPLTFGAGTKVEIKGGGGSGGGGSGGGGSGGGGSEVQLVESGGGVVQPGRSLRLSCAASGFTFSSYAMSWVRQAPGKGLEWVASISSAGTYIYYADSVKGRFTISRDNSKNTLYLQMNGLRAEDTAVYYCARHGNGYDPLWYFDVWGQGTLVTVSS
notes: As m65; not shown: wildtype IgG1 Fc region
B4: CD4001098 (Fc fusion)
chain: B3 chain with E133Q, V143L, Q145K, R148G, S207A, T210S, G217S, Q246A, L249T
notes: as for B3
B5: CD4001096 (Fc fusion)
chain: B3 chain with E133Q, V143L, R148G, E178V, S207A, N216T, G217S, V225I, T248A
notes: as for B3
B6: CD4001094 (Fc fusion)
chain: B3 chain with V137L, V143L, R148G, A193T, T201S, G217S, L249T
notes: as for B3
B7: CD4001093 (Fc fusion)
chain: DVVMTQSPDTLSLSPGERATLSCRSSQSLVHYNGYTYLHWYQQQPGQAPRLLIYKVSNRFSGIPDRFSGSGSGTDFTLTISRLEPEDFAVYFCSQTTHVPLTFGQGTKLEIKGGGGSGGGGSGGGGSGGGGSEVQLLESGGGLVQPGGSLRLSCAASGFTFSSYAMSWVRQAPGKGLEWVASISSAGTYIYYTDSVKGRFSISRDNSKNTLYLQMNSLRAEDTAVYYCARHGNGYDPLWYFDVWGQGTTVTVSS
notes: as for B3
B8: CD4001095 (Fc fusion)
chain: B7 chain with E133Q, L137V, E178V, T193A, S201T, S207A, N216T, V225I, T248A, T249L
notes: as for B3
B9: CD4001092 (Fc fusion)
chain: DVVMTQSPDSLAVSLGERATINCRSSQSLVHYNGYTYLHWYQQKPGQPPKLLIYKVSNRFSGVPDRFSGSGSGTDFTLTISSLQAEDVAVYFCSQTTHVPLTFGAGTKLELRGGGGSGGGGSGGGGSGGGGSEVQLVESGGGVVQPGRSLRLSCAASGFTFSSYAMSWVRQAPGKGLEWVASISSAGTYIYYADSVKGRFTISRDNSKNTLYLQMNGLRAEDTAVYYCARHGNGYDPLWYFDVWGQGTLVTVSS
notes: as for B3
B10: CD4001101 (Fc fusion)
scFv: DIQMTQSPSTLSASVGDRVTITCKSSQSLLFSVNQKNYLAWYQQKPGKAPKLLIYWASTRESGVPARFSGSGSGTEFTLTISSLQPDDFATYYCQHYYSYPWTFGQGTKVEVKGGGGSGGGGSGGGGSGGGGSQVQLVQSGAEVKKPGASVKVSCKASGYTFSTSWIEWIKQAPGQGLEWIGEILPGSGSTNYNENFRNKATFTADTSISTAYMELSRLRSDDTAVYYCARGDDGSYVRWYFDVWGQGTLVTVSS
notes: CDR-grafted 1D5 scFv in scFv-hFc format; not shown: the human Fc (hinge-CH2-CH3) of the scFv-hFc format
B11: CD4001102 (Fc fusion)
scFv: B10 scFv with T10S, A66S, E76D, L79F, D87E, F89I, Q106G, V112I
notes: As m82; not shown: the human Fc (hinge-CH2-CH3) of the scFv-hFc format
B12: CD4001086 (Fc fusion)
chain: EVVMTQSPGTLSLSPGERATLSCRSSQSLVHYNGYTYLHWYQQKPGQAPRLLIYKVSNRFSGIPARFSGSGSGTDFTLTISRLEPEDLAVYFCSQTTHVPLTFGQGTKVEIKGGGGSGGGGSGGGGSGGGGSEVQLVESGGGLVQPGRSLRLSCAASGFTFSSYAMSWVRQAPGKGLEWVASISSAGTYIYYADSVQGRFTISRDNGKNSLYLQMNSLRAEDTALYYCARHGNGYDPLWYFDVWGQGTMVTVSS
notes: Partly humanized 5B9 scFv on the N-terminus of a wildtype IgG1 Fc; not shown: wildtype IgG1 Fc region
B13: CD4001097 (Fc fusion)
chain: B12 chain with E133Q, Q145K, R148G, Q197K, G207A, L225V, Q246A, M249T
notes: as for B3
B14: CD4001087 (Fc fusion)
chain: EVVMTQSPDTLSVSPGERATLSCRSSQSLVHYNGYTYLHWYQQKPGQVPRLLIYKVSNRFSGVPARFTGSGSGTEFTLTISSLQSEDFAVYFCSQTTHVPLTFGQGTKLEIKGGGGSGGGGSGGGGSGGGGSEVQLVESGGGLVQPGRSLRLSCAASGFTFSSYAMSWVRQAPGKGLEWVASISSAGTYIYYADSVQGRFTISRDNGKNSLYLQMNSLRAEDTALYYCARHGNGYDPLWYFDVWGQGTMVTVSS
notes: as for B3
B15: PDL01033 (Fc fusion)
scFv: EVQLQESGPSLVKPSQTLSLTCSVTGDSITSGYWNWIRKFPGKKLEYMGYISYTGSTYYNPSLKSRISIARDTSKNQYFLQLNSVTTEDTATYYCTRGENWDGGYFDYWGQGTTLTVSSGGGGSGGGGSGGGGSGGGGSDIQMTQTTSSLSASLGDRVTISCSASQGIRNYLNWYQQKPDGTVKLLIYYTSTLHSGVPSRFSGSGSGTDYSLTISNLEPEDIATYYCQQYSKLPWTFGGGTRLEIK
notes: also called 3G11HL x human IgG1 WT Fc; not shown: human IgG1 WT Fc (hinge-CH2-CH3) and its junction to the scFv
B16: PDL01049 (10B2LH x human IgG1 WT Fc) (Fc fusion)
chain: DIQMTQTTSSLSASLGDRVTISCRASQDIRNYLNWYQQKPDGTVKLLIYYTSRLQSGVPSRFSGSGSGTDYSLTITTLEQEDFATYFCQQGNMFPYTFGGGTKLEIKGGGGSGGGGSGGGGSGGGGSKVQLQQSGAEVVKPGASVKLSCKASGYNLTEYIIHWVKQRSGQGLEWIGWFYPGSGSIKYNEKFKDKATLTADKSSTTVYMDLSRLTSEDSAVYFCARHGLYYGFPYWGQGTSVTVSS
notes: not shown: human IgG1 WT Fc
B17: PDL01047 (Fc fusion, not shown: a dimerising Fc or GST; small tags and cut ends)
scFv: DVQITQSPSYLAASPGETITINCRASKSISKYLAWYQEKPGKTNKLLIYSGSTLQSGIPSRFSGSGSGTDFTLTISSLEPEDFAMYYCQQHNEYPFTFGAGTKLEIKGGGGSGGGGSGGGGSGGGGSEVQLQESGPSLVKPSQTLSLTCSVTGDSITSGYWNWIRKFPGNRLEYMGFRSYSGTTYYNPSLKSRISITRDTSKNQYYLQLNSVTTEDTATYYCARFSDFGSSENTMDYWGQGTSVTVSS
notes: also called 7A3-2LH x human IgG1 WT Fc
B18: PDL01048 (Fc fusion, not shown: a dimerising Fc or GST; small tags and cut ends)
scFv: DIVLTQSPASLAVSLGQRATISCRASKSVSKSGYSYLHWYQQKPGQTPKLLIYLASNLESGVPARFSGSGSGTDFTLNIHPVEEEDAATYYCQHSWELPYTFGGGTKLEIKGGGGSGGGGSGGGGSGGGGSEVQLQESGPSLVKPSQTLSLTCSVTGDSITSGYWNWIRKFPGKKLEYMGYISYTGSTYYNPSLKSRISIARDTSKNQYFLQLNSVTTEDTATYYCTRGENWDGGYFDYWGQGTTLTVSS
notes: also called 7H11LH x human IgG1 WT Fc

Each binder was assayed against T1, Human PD-L1 full-length (human, UniProt Q9NZQ7 19-290) (assay: flow cytometry, CHOK1SV/human PD-L1 cells).
T1 construct: also called PDL01021; CHOK1SV/huPDL1
T1 sequence (Q9NZQ7 19-290): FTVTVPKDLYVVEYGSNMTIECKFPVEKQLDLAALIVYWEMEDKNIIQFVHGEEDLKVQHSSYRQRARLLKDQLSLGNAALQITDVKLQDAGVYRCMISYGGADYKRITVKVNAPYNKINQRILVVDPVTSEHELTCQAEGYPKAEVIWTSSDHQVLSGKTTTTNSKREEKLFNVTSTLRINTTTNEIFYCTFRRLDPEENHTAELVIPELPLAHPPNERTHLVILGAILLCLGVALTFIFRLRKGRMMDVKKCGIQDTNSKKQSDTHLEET
B1: binds. B2: binds.

The binders below were run against T2, human CD40 full-length (human, UniProt P25942 21-277) (assay: flow cytometry, CHOK1SV/human CD40 cells).
T2 construct: Also used for CD40 of Daudi cells, of CD40-expressing HEK293 cells and of the BPS CD40/NFkB HEK293 reporter cells where the row says so; also called CD4001012; CHOK1SV/CD40
B3: binds. B4: binds. B5: binds. B6: binds. B7: binds. B8: binds. B9: binds. B10: binds. B11: binds. In the case of B12, the “EC50 (read off the curve)” value is reported as ~2 nM. In the case of B13, the “EC50 (read off the curve)” value is reported as ~4 nM. B14: binds.

These binders were tested against T1, Human PD-L1 full-length (assay: MSD cell binding, CHOK1SV/human PD-L1 cells; x axis without printed unit).
B15: binds. B16: binds. B17: binds. B18: binds.

Each binder was assayed against T3, Cyno PD-L1 full-length (cynomolgus, UniProt Q9NZQ7 19-290 (human entry)) (assay: MSD cell binding, CHOK1SV/cynomolgus PD-L1 cells; x axis without printed unit).
T3 construct: also called PDL01022; CHOK1SV/cynoPDL1
T3 sequence (Q9NZQ7 other isoform, or with tags, fused parts or gaps): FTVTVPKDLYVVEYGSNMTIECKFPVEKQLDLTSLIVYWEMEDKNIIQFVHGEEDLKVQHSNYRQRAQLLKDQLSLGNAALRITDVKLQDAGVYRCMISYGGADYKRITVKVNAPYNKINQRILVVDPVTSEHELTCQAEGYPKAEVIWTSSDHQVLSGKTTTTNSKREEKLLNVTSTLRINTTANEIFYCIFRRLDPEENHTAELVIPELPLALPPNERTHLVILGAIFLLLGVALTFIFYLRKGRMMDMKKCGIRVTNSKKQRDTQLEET
B15: binds. B16: binds. B17: binds. B18: binds.
